Results taken from publication PMC3458707 (Chemistry & biology, 2012).
Read-outs that look alike come from different tables or passages of the source.

Tests used:
Assay in all cases: native MS
[1] = target: T1, Recombinant firefly luciferase (firefly, UniProt P08659 1-550 = luciferase)
[2] = target: T1, Recombinant firefly luciferase; remark: listed apart in the source
[3] = target: T2, mitochondrial pig heart malate dehydrogenase (pig, UniProt P00346 25-338)
T2 sequence (looked up): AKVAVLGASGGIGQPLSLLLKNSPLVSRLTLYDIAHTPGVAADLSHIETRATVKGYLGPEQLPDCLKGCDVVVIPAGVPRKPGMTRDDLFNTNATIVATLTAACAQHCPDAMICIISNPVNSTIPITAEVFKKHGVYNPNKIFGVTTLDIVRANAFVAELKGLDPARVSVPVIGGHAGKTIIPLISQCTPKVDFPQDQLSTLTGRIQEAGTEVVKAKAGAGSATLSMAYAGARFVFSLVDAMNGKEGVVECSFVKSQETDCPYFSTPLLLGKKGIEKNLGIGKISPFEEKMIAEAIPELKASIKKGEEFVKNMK

[4] = target: T3, pig heart citrate synthase (pig, UniProt P00889 28-464)
T3 sequence (looked up): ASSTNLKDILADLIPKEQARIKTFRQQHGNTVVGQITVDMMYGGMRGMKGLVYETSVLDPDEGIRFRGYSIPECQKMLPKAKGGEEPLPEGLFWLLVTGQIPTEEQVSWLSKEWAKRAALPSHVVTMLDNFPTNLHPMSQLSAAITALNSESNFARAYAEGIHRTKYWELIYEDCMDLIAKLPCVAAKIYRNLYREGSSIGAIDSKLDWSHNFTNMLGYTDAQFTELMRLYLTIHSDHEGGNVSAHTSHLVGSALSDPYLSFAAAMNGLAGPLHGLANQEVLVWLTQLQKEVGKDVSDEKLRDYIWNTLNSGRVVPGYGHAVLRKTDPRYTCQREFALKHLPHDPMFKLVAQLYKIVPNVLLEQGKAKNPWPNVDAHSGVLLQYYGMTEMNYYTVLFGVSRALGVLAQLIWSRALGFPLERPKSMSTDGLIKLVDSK

[5] = target: T1, Recombinant firefly luciferase; remark: listed apart in the source
[6] = target: T2, mitochondrial pig heart malate …; remark: listed apart in the source
[7] = target: T3, pig heart citrate synthase; remark: listed apart in the source

T1 sequence (P08659 whole entry): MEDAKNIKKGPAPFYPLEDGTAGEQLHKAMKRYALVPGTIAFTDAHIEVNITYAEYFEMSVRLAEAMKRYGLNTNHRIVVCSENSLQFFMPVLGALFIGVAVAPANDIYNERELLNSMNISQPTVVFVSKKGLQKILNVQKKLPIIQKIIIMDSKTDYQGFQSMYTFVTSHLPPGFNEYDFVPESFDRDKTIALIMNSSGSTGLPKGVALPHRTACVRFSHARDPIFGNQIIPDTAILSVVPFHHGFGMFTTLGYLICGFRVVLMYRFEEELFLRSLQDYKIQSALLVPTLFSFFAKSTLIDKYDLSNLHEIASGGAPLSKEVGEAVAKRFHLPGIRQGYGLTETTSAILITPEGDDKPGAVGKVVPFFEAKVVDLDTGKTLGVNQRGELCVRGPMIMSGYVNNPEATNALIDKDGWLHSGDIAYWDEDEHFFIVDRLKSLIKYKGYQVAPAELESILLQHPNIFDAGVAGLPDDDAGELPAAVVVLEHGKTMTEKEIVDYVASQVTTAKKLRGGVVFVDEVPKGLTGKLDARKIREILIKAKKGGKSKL

- stoichiometry N [1]: 19.4 ± 0.4 subunits of HSP18.1 per Luc
- ratio of complexes [Target]1:[Target]2 [2]: 1.1 [Target]2 per [Target]1
- ratio of complexes [Target]1:[Target]2 [3]: 1.6 [Target]2 per [Target]1
- ratio of complexes [Target]1:[Target]2 [4]: 2.9 [Target]2 per [Target]1
- ratio of complexes [Target]1:[Target]2 [5]: 2.2 [Target]1 per [Target]2
- ratio of complexes [Target]1:[Target]2 [6]: 1.9 [Target]2 per [Target]1
- ratio of complexes [Target]1:[Target]2 [7]: 2 [Target]2 per [Target]1
B1: HSP18.1 from Pisum sativum (pea) (natural protein, UniProt P19243 1-158, looked up)
chain: MSLIPSFFSGRRSNVFDPFSLDVWDPLKDFPFSNSSPSASFPRENPAFVSTRVDWKETPEAHVFKADLPGLKKEEVKVEVEDDRVLQISGERSVEKEDKNDEWHRVERSSGKFLRRFRLPENAKMDKVKASMENGVLTVTVPKEEIKKAEVKSIEISG
